Data on one protein can be found in PMC3795569, “Crystal structure of the N-terminal domain of MinC dimerized via domain swapping” (Journal of Synchrotron Radiation, 2013).

The data set deals with the molecule itself. In words: SEC; size-exclusion chromatography of EcoMinCNTD in a broad range of protein concentrations.

B1: Escherichia coli MinC N-terminal domain (EcoMinCNTD), residues 1-105 (domain or fragment, UniProt P18196 1-105, looked up)
chain: MSNTPIELKGSSFTLSVVHLHEAEPKVIHQALEDKIAQAPAFLKHAPVVLNVSALEDPVNWSAMHKAVSATGLRVIGVSGCKDAQLKAEIEKMGLPILTEGKEKA
notes: MinC (septum site-determining protein), Escherichia coli, N-terminal domain, residues 1-105; amplified from E. coli genomic DNA (ATCC No. 700926D-5); Cloned into a modified pET-28a vector (BamHI/XhoI); The printed molecular weight is 11863 Da; also called unfused-EcoMinCNTD; source: E. coli BL21 (DE3), purified (Ni-NTA, TEV cleavage, size-exclusion chromatography)
B1: the “stoichiometry N” value worked out at 2.
